# Legend:
# TC-3 cells = assay: IL-1-induced pancreatic beta-cell apoptosis; format: cell-based; settings: 1 μM single addition, 15 days IL-1
# [1] = test system: human foreskin fibroblasts (HFFs); assay: Neutral Red cytotoxicity assay; format: cell-based; settings: 1, 2, 5 μM, 24 h
# murine T cells = assay: PMA & ionomycin-induced cytokine production in primary cells; format: cell-based, mouse; settings: Fig. 28 D-E
# Brown Norway rats [2] = assay: STZ diabetic retinopathy prevention, intravitreal, ERG; format: in vivo, rat
# C57BL/6 mice = assay: Bleomycin-induced acute lung inflammation (COPD model); format: in vivo, mouse
# rat pancreatic islets = assay: Rat islets, 4 h hypoxia; format: cell-based; settings: 100 μM
# rats = assay: Adriamycin-induced nephropathy; format: in vivo, rat
# primary macrophages = assay: Uptake into primary cultured macrophages (specific antibody); format: cell-based; settings: Fig. 24
# [3] = Stability of stock and diluted solutions; format: physicochemical
# [4] = test system: endogenous JNK in HepG2 cells; assay: AlphaScreen kinase assay of endogenous IL-1-induced JNK activity; format: cell-based; settings: IL-1-dependent JNK activity, Fig. 3d
# [5] = test system: Sprague-Dawley albino rats; assay: Light-induced photoreceptor damage (AMD model), ERG and ONL thickness; format: in vivo, rat
# Brown Norway rats [6] = assay: STZ diabetic retinopathy, repeated subconjunctival administration; format: in vivo, rat
# [7] = Phase I single ascending i.v. dose study, healthy male volunteers; format: in vivo, human
substance,measurement,setting,value
NH2-DQSRPVQPFLNLTTPRKPRPPRRRQRRKKRG-COOH (H-DQSRPVQPFLNLTTPRKPRPPRRRQRRKKRG-OH; also: D-amino acids (positions not given here)) [XG-102],long-term protection against IL-1-induced cell death,TC-3 cells,보호를 부여할 수 있었으나
same,cytotoxicity,[1],관찰되지 않았으며
same,"PMA & ionomycin-induced TNFa, IFNg production",murine T cells,사이토카인 방출을 억제한다
same,OP#1 scotopic single flash 0dB amplitude,"Brown Norway rats [2]; 0.2 μg/eye IVT d1,8,15, day 6",49 μV
same,OP#2 scotopic single flash 0dB amplitude,"Brown Norway rats [2]; 0.2 μg/eye, day 6",98 μV
same,OP#3 scotopic single flash 0dB amplitude,"Brown Norway rats [2]; 0.2 μg/eye, day 6",219 μV
same,OP#4 scotopic single flash 0dB amplitude,"Brown Norway rats [2]; 0.2 μg/eye, day 6",147 μV
same,photopic 1Hz flicker A-wave amplitude,"Brown Norway rats [2]; 0.2 μg/eye, day 6",-3 μV
same,photopic 1Hz flicker B-wave amplitude,"Brown Norway rats [2]; 0.2 μg/eye, day 6",63 μV
same,photopic 29Hz flicker B-wave amplitude,"Brown Norway rats [2]; 0.2 μg/eye, day 6",9 μV
same,scotopic single flash 0dB A-wave amplitude,"Brown Norway rats [2]; 0.2 μg/eye, day 6",-209 μV
same,scotopic single flash 0dB B-wave amplitude,"Brown Norway rats [2]; 0.2 μg/eye, day 6",421 μV
same,scotopic single flash -10dB A-wave amplitude,"Brown Norway rats [2]; 0.2 μg/eye, day 6",-151 μV
same,scotopic single flash -30dB B-wave amplitude,"Brown Norway rats [2]; 0.2 μg/eye, day 6",269 μV
same,OP#1 scotopic single flash 0dB amplitude,"Brown Norway rats [2]; 0.2 μg/eye, day 13",37 μV
same,OP#2 scotopic single flash 0dB amplitude,"Brown Norway rats [2]; 0.2 μg/eye, day 13",63 μV
same,OP#3 scotopic single flash 0dB amplitude,"Brown Norway rats [2]; 0.2 μg/eye, day 13",165 μV
same,OP#4 scotopic single flash 0dB amplitude,"Brown Norway rats [2]; 0.2 μg/eye, day 13",129 μV
same,photopic 1Hz flicker A-wave amplitude,"Brown Norway rats [2]; 0.2 μg/eye, day 13",-4 μV
same,photopic 1Hz flicker B-wave amplitude,"Brown Norway rats [2]; 0.2 μg/eye, day 13",71 μV
same,photopic 29Hz flicker B-wave amplitude,"Brown Norway rats [2]; 0.2 μg/eye, day 13",14 μV
same,scotopic single flash 0dB A-wave amplitude,"Brown Norway rats [2]; 0.2 μg/eye, day 13",-203 μV
same,scotopic single flash 0dB B-wave amplitude,"Brown Norway rats [2]; 0.2 μg/eye, day 13",442 μV
same,scotopic single flash -10dB A-wave amplitude,"Brown Norway rats [2]; 0.2 μg/eye, day 13",-128 μV
same,scotopic single flash -30dB B-wave amplitude,"Brown Norway rats [2]; 0.2 μg/eye, day 13",270 μV
same,OP#1 scotopic single flash 0dB amplitude,"Brown Norway rats [2]; 0.2 μg/eye, day 20",36 μV
same,OP#2 scotopic single flash 0dB amplitude,"Brown Norway rats [2]; 0.2 μg/eye, day 20",70 μV
same,OP#3 scotopic single flash 0dB amplitude,"Brown Norway rats [2]; 0.2 μg/eye, day 20",164 μV
same,OP#4 scotopic single flash 0dB amplitude,"Brown Norway rats [2]; 0.2 μg/eye, day 20",116 μV
same,photopic 1Hz flicker A-wave amplitude,"Brown Norway rats [2]; 0.2 μg/eye, day 20",-2 μV
same,photopic 1Hz flicker B-wave amplitude,"Brown Norway rats [2]; 0.2 μg/eye, day 20",70 μV
same,photopic 29Hz flicker B-wave amplitude,"Brown Norway rats [2]; 0.2 μg/eye, day 20",10 μV
same,scotopic single flash 0dB A-wave amplitude,"Brown Norway rats [2]; 0.2 μg/eye, day 20",-198 μV
same,scotopic single flash 0dB B-wave amplitude,"Brown Norway rats [2]; 0.2 μg/eye, day 20",433 μV
same,scotopic single flash -10dB A-wave amplitude,"Brown Norway rats [2]; 0.2 μg/eye, day 20",-129 μV
same,scotopic single flash -30dB B-wave amplitude,"Brown Norway rats [2]; 0.2 μg/eye, day 20",240 μV
same,OP#1 scotopic single flash 0dB amplitude,"Brown Norway rats [2]; 2 μg/eye IVT d1,8,15, day 6",40 μV
same,OP#2 scotopic single flash 0dB amplitude,"Brown Norway rats [2]; 2 μg/eye, day 6",93 μV
same,OP#3 scotopic single flash 0dB amplitude,"Brown Norway rats [2]; 2 μg/eye, day 6",239 μV
same,OP#4 scotopic single flash 0dB amplitude,"Brown Norway rats [2]; 2 μg/eye, day 6",182 μV
same,photopic 1Hz flicker A-wave amplitude,"Brown Norway rats [2]; 2 μg/eye, day 6",-3 μV
same,photopic 1Hz flicker B-wave amplitude,"Brown Norway rats [2]; 2 μg/eye, day 6",69 μV
same,photopic 29Hz flicker B-wave amplitude,"Brown Norway rats [2]; 2 μg/eye, day 6",11 μV
same,scotopic single flash 0dB A-wave amplitude,"Brown Norway rats [2]; 2 μg/eye, day 6",-205 μV
same,scotopic single flash 0dB B-wave amplitude,"Brown Norway rats [2]; 2 μg/eye, day 6",383 μV
same,scotopic single flash -10dB A-wave amplitude,"Brown Norway rats [2]; 2 μg/eye, day 6",-124 μV
same,scotopic single flash -30dB B-wave amplitude,"Brown Norway rats [2]; 2 μg/eye, day 6",270 μV
same,OP#1 scotopic single flash 0dB amplitude,"Brown Norway rats [2]; 2 μg/eye, day 13",33 μV
same,OP#2 scotopic single flash 0dB amplitude,"Brown Norway rats [2]; 2 μg/eye, day 13",92 μV
same,OP#3 scotopic single flash 0dB amplitude,"Brown Norway rats [2]; 2 μg/eye, day 13",219 μV
same,OP#4 scotopic single flash 0dB amplitude,"Brown Norway rats [2]; 2 μg/eye, day 13",160 μV
same,photopic 1Hz flicker A-wave amplitude,"Brown Norway rats [2]; 2 μg/eye, day 13",-6 μV
same,photopic 1Hz flicker B-wave amplitude,"Brown Norway rats [2]; 2 μg/eye, day 13",91 μV
same,photopic 29Hz flicker B-wave amplitude,"Brown Norway rats [2]; 2 μg/eye, day 13",17 μV
same,scotopic single flash 0dB A-wave amplitude,"Brown Norway rats [2]; 2 μg/eye, day 13",-261 μV
same,scotopic single flash 0dB B-wave amplitude,"Brown Norway rats [2]; 2 μg/eye, day 13",524 μV
same,scotopic single flash -10dB A-wave amplitude,"Brown Norway rats [2]; 2 μg/eye, day 13",-152 μV
same,scotopic single flash -30dB B-wave amplitude,"Brown Norway rats [2]; 2 μg/eye, day 13",292 μV
same,OP#1 scotopic single flash 0dB amplitude,"Brown Norway rats [2]; 2 μg/eye, day 20",26 μV
same,OP#2 scotopic single flash 0dB amplitude,"Brown Norway rats [2]; 2 μg/eye, day 20",49 μV
same,OP#3 scotopic single flash 0dB amplitude,"Brown Norway rats [2]; 2 μg/eye, day 20",137 μV
same,OP#4 scotopic single flash 0dB amplitude,"Brown Norway rats [2]; 2 μg/eye, day 20",130 μV
same,photopic 1Hz flicker A-wave amplitude,"Brown Norway rats [2]; 2 μg/eye, day 20",-2 μV
same,photopic 1Hz flicker B-wave amplitude,"Brown Norway rats [2]; 2 μg/eye, day 20",45 μV
same,photopic 29Hz flicker B-wave amplitude,"Brown Norway rats [2]; 2 μg/eye, day 20",9 μV
same,scotopic single flash 0dB A-wave amplitude,"Brown Norway rats [2]; 2 μg/eye, day 20",-147 μV
same,scotopic single flash 0dB B-wave amplitude,"Brown Norway rats [2]; 2 μg/eye, day 20",278 μV
same,scotopic single flash -10dB A-wave amplitude,"Brown Norway rats [2]; 2 μg/eye, day 20",-84 μV
same,scotopic single flash -30dB B-wave amplitude,"Brown Norway rats [2]; 2 μg/eye, day 20",166 μV
same,substance-related deaths,Brown Norway rats [2]; 0.2 and 2 μg/eye IVT,XG-102 관련된 사망은 없었다
same,overall effect on decrease of ERG wave amplitudes,"Brown Norway rats [2]; rat, in vivo",웨이브 진폭의 감소를 역전시키는 경향이 있다
same,vascular leakage on fluorescein angiography,"Brown Norway rats [2]; rat, in vivo",혈관 누출을 나타내지 않았고
same,neutrophil recruitment or other cell types in BAL,"C57BL/6 mice; 0.001 mg/kg s.c. single dose, 24 h",영향을 미치지 않았다
same,neutrophil recruitment and total cell number in BAL,"C57BL/6 mice; 0.1 mg/kg s.c. single dose, 24 h",현저하게 감소시켰다
same,lung MPO level,C57BL/6 mice; MPO not induced by bleomycin,영향을 주지 않았다
same,TNF level in BALF,C57BL/6 mice; TNF very low after BLM,감소하는 경향이 관찰되었다
same,hypoxia-induced phosphorylation of JNK and JUN,rat pancreatic islets; 1 h pre-treatment + 4 h hypoxia,인산화를 억제하지 않았다
same,islet apoptosis and necrosis,rat pancreatic islets; normoxia and hypoxia,감소되었다
same,development of glomerular and tubulointerstitial fibrosis,rats; 2 mg/kg i.v. day 0,발생을 예방하고
same,effect on adriamycin-induced nephropathy (histology),"rats; 20, 200, 2000 μg/kg i.v., days 8-41",현저하게 긍정적인 효과를 갖는다
same,serum urea level throughout the disease course,"rats; ADR 10 mg/kg + XG-102 2 mg/kg i.v. day 0, up to day 56",≤ 10 mmol/L
same,adverse effect on proteinuria,"rats; albumin ELISA, Fig. 41",어떠한 역효과도 유발하지 않는
same,c-jun expression in the interstitium,"rats; days 8 and 14, Fig. 46-47",현저한 감소를 초래
same,incorporation into primary macrophages,primary macrophages,강하게 병합된다
same,stability of diluted formulations for animal dosing,[3]; 2-4°C,24 시간
same,stability of stock solution (1 mM),[3]; about -80°C,3 개월
same,stability of stock solution (10 mM in water),[3]; about -80°C,≥ 100 일
same,stability of diluted formulations for animal dosing,[3]; room temperature,24 시간
same,stability in saline,"[3]; room temperature, 10 μg/ml - 50 mg/ml",8 시간
same,inhibition of JNK activity compared with L-JNKI,[4],보다 효과적으로 JNK 활성을 억제한다
same,b-wave recovery (% of baseline),"[5]; 1.5 μg/eye IVT, day 9",55.3%
same,a-wave recovery (% of baseline),"[5]; 1.5 μg/eye IVT, day 16",47.5%
same,b-wave recovery (% of baseline),"[5]; 1.5 μg/eye IVT, day 16",61.7%
same,a-wave recovery (% of baseline),"[5]; 1.5 μg/eye IVT, day 23",48.3%
same,b-wave recovery (% of baseline),"[5]; 1.5 μg/eye IVT, day 23",73.5%
same,ONL thickness loss (% vs non-induced control eyes),[5]; 1.5 μg/eye ivt,39%
same,ONL thickness,"[5]; 1.5 μg/eye ivt, day 23, p<0.05 vs vehicle",24.89 ± 4.01 μm
same,b-wave recovery (% of baseline),"[5]; 15 μg/eye IVT, day 9",60.6%
same,a-wave recovery (% of baseline),"[5]; 15 μg/eye IVT, day 16",51.1%
same,b-wave recovery (% of baseline),"[5]; 15 μg/eye IVT, day 16",62.3%
same,a-wave recovery (% of baseline),"[5]; 15 μg/eye IVT, day 23",41.8%
same,b-wave recovery (% of baseline),"[5]; 15 μg/eye IVT, day 23",56.5%
same,ONL thickness loss (% vs non-induced control eyes),[5]; 15 μg/eye ivt,40%
same,ONL thickness,"[5]; 15 μg/eye ivt, day 23, p<0.05 vs vehicle",24.42 ± 5.99 μm
same,a-wave recovery (% of baseline),"[5]; 150 μg/eye IVT, day 9 (vehicle 5.7)",23.6%
same,b-wave recovery (% of baseline),"[5]; 150 μg/eye IVT, day 9 (vehicle 15)",31.9%
same,a-wave recovery (% of baseline),"[5]; 150 μg/eye IVT, day 16 (vehicle 13.2)",24.1%
same,b-wave recovery (% of baseline),"[5]; 150 μg/eye IVT, day 16 (vehicle 24.8)",38.9%
same,a-wave recovery (% of baseline),"[5]; 150 μg/eye IVT, day 23 (vehicle 22.5)",23.7%
same,b-wave recovery (% of baseline),"[5]; 150 μg/eye IVT, day 23 (vehicle 30.6)",37.1%
same,ONL thickness loss (% vs non-induced control eyes),[5]; 150 μg/eye ivt,53%
same,ONL thickness,"[5]; 150 μg/eye ivt, day 23",18.95 ± 9.17 μm
same,decline of contrast threshold,Brown Norway rats [6]; 200 μg/eye,현저하게 지연되었다
same,"ocular irritation (chemosis, hyperemia, discharge)","Brown Norway rats [6]; 2, 20, 200 μg/eye every 2 weeks subconj.",안구 자극이 관찰되지 않았다
same,retinal cytokine levels (all 23),Brown Norway rats [6]; 20 or 200 μg/eye,BLQ
same,progression of visual acuity loss (spatial frequency threshold),"Brown Norway rats [6]; 20 or 200 μg/eye, days 57-99",현저하게 지연시켰다
same,contrast threshold vs vehicle,"Brown Norway rats [6]; all doses, day 99",현저하게 높은 대조 역치 값을 가졌으며
same,visual acuity score vs vehicle-treated STZ group,"Brown Norway rats [6]; all doses, day 113 (significant at 2 and 200 μg/eye)",높은 시력 점수를 보였고
same,time at which plasma concentration fell below LLOQ,[7]; 10 μg/kg i.v. infusion,≤ 2 시간
same,time at which plasma concentration fell below LLOQ,"[7]; 40 μg/kg, after start of infusion",3 시간
same,time at which plasma concentration fell below LLOQ,"[7]; 80 μg/kg, after start of infusion",≤ 7 시간
same,inter-subject variability of PK parameters (CV% of geometric mean),"[7]; 80 μg/kg, except MRT",29-44%
same,increase of AUC0-last with dose,[7]; 10-80 μg/kg,선형 이상의 비율로 증가했다
same,inter-subject variability of PK parameters (CV% of geometric mean),"[7]; 10 and 40 μg/kg, most parameters",15-30%
same,increase of Cmax with dose,[7]; 40 to 80 μg/kg,선형 이상의 비율로 증가하는 것으로 나타났다
same,safety and tolerability,"[7]; single i.v. 10, 40 or 80 μg/kg",안전하고 내약성이 우수했다
